According to patent publication US20260209322A1 (HAMAD BIN KHALIFA UNIVERSITY, published 2026):

Key:
Assay in all cases: filter retardation assay
mouse α-synuclein = mouse α-synuclein (mouse, UniProt O55042 1-140)
Procedure: (§1) Filter retardation assay was performed using a Minifold 48 slots (GE Healthcare Life Sciences). Each protein (50 μl) at a final concentration of 1 μg/ml was loaded into each slot on a nitrocellulose membrane that has been pre-soaked in PBS. Samples were allowed to absorb onto the nitrocellulose membrane and then slots were washed with 1 ml of PBS. Membranes were then probed with relevant antibodies, and developed with SuperSignal West Pico Chemiluminescent Substrate Kit.

γ-synuclein = γ-synuclein (UniProt O76070 1-127)
Procedure: as §1

β-synuclein = β-synuclein (UniProt Q16143 1-134)
β-synuclein, sequence (Q16143 whole entry): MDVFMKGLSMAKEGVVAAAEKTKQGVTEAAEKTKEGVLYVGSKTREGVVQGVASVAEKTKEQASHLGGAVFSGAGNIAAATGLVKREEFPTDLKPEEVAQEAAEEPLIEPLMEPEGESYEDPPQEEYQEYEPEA
Procedure: as §1

γ-synuclein, sequence (O76070 whole entry): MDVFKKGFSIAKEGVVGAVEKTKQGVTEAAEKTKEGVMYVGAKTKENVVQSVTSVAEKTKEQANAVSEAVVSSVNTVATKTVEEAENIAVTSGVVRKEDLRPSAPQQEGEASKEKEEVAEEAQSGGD

binding result (mouse α-synuclein): binds
binding result (γ-synuclein): no binding
binding result (β-synuclein): no binding
B1: monoclonal antibody 4B1 produced by hybridoma 4B1 (ATCC Patent Deposit Number PTA-127017) (antibody, mouse IgG1, kappa, V domains shown)
VH: EVKLVESGGGLVQPGGSLKLSCAASGITFSSYTMSWVRQTPEKRLEWVGYISNGGGRTYYPDTVKGRFTISRDNAKNTLYLQMSSLKSEDTAMYYCARQITTAMGYYYAMDYWGQGTSVTVSS
VL: DVVMTQTPLSLPVSLGDQASISCRSSQSLVHSNGNTYLHWYLQKPGQSPKLLISKVSNRFSGVPDRFSGSGSGTDFTLKISRVEAEDLGVYFCSQSTHVPLTFGAGTKLELKR
notes: also called mAb 4B1; 4E1
